Assay results as given in publication PMC10783091, “Higher affinities of fibers with cell receptors increase the infection capacity and virulence of human adenovirus type 7 and type 55 compared to type 3” (Microbiology Spectrum, 2023).

Tests used:
[1] = molecular target: Recombinant fiber knob of HAdV-7 (human adenovirus type 7) (UniProt P15141); test: SDS-PAGE of unboiled (native) against boiled samples; purified knobs in loading buffer kept on ice (native) or heated at 98°C for 5 min (boiled); 12% SDS-PAGE
[2] = molecular target: recombinant human desmoglein 2 (DSG2) (human) (UniProt Q14126); test: SPR; DSG2 amine-coupled on a CM5 chip (3,500-3,700 RU), knobs as analytes; 25°C; HBS-EP (10 mM HEPES, 150 mM NaCl, 3 mM EDTA, 0.05% Tween 20, pH 7.4); association 180 s, dissociation 540 s, 30 µL/min; Biacore 8K
[3] = molecular target: Recombinant fiber knob of HAdV-55 (human adenovirus type 55); test: SDS-PAGE of unboiled (native) against boiled samples; purified knobs in loading buffer kept on ice (native) or heated at 98°C for 5 min (boiled); 12% SDS-PAGE
[4] = molecular target: T1, recombinant human desmoglein 2 (DSG2) (human, UniProt Q14126 50-609); test: SPR; DSG2 amine-coupled on a CM5 chip (3,500-3,700 RU), knobs as analytes; 25°C; HBS-EP (10 mM HEPES, 150 mM NaCl, 3 mM EDTA, 0.05% Tween 20, pH 7.4); association 180 s, dissociation 540 s, 30 µL/min; Biacore 8K; conditions: both partners purified
T1 construct: desmoglein 2, human, recombinant; No catalogue number, limits or tags are printed for the bought protein; The source is named for the SPR; the ELISA says only 'human DSG2'; also called human DSG2; receptor DSG2; source: bought: Creative Biomart
T1 sequence: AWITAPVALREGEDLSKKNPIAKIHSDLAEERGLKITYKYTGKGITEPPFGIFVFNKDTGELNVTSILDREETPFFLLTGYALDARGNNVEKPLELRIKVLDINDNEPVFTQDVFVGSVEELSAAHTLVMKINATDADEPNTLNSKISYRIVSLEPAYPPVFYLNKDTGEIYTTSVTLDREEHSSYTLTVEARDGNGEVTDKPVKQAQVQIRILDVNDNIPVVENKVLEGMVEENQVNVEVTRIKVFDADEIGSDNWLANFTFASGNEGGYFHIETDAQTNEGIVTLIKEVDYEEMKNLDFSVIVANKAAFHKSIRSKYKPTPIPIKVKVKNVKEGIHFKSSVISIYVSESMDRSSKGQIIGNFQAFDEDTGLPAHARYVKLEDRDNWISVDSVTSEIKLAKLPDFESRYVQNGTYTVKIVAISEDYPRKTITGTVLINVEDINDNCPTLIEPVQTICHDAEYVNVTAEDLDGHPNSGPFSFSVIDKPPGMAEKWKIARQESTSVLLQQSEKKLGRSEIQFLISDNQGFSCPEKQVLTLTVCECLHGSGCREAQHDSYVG

[5] = molecular target: the molecule itself; test: SDS-PAGE of unboiled (native) against boiled samples; purified knobs in loading buffer kept on ice (native) or heated at 98°C for 5 min (boiled); 12% SDS-PAGE

## Recombinant fiber knob of HAdV-7 (from UniProt P15141 1-343) (domain or fragment)
[1]
  stoichiometry N: 3
[2]
  Kd: 2.21 nM

## Recombinant fiber knob of HAdV-55 (domain or fragment)
[3]
  stoichiometry N: 3
[2]
  Kd: 1.25 nM

B1: Recombinant fiber knob of HAdV-3 (domain or fragment)
chain: KLGNGLTFDSSNSIALKNNTLWTGPKPEANCIIEYGKQNPDSKLTLILVKNGGIVNGYVTLMGASDYVNTLFKNKNVSINVELYFDATGHILPDSSSLKTDLELKYKQTADFSARGFMPSTTAYPFVLPNAGTHNENYIFGQCYYKASDGALFPLEVTVMLNKRLPDSRTSYVMTFLWSLNAGLAPETTQATLITSPFTFSYIREDD
notes: fiber protein of human adenovirus type 3, fiber knob with the last shaft repeat; also called Ad3K; Ad3k; not shown: His tag, N-terminal, kept
[4]
  Kd: 6.7 nM

B2: Recombinant fiber knob of HAdV-5 (domain or fragment)
chain: GAITVGNKNNDKLTLWTTPAPSPNCRLNAEKDAKLTLVLTKCGSQILATVSVLAVKGSLAPISGTVQSAHLIIRFDENGVLLNNSFLDPEYWNFRNGDLTEGTAYTNAVGFMPNLSAYPKSHGKTAKSNIVSQVYLNGDKTKPVTLTITLNGTQETGDTTPSAYSMSFSWDWSGHNYINEIFATSSYTFSYIAQE
notes: fiber protein of human adenovirus type 5, fiber knob with the last shaft repeat; Negative control knob; also called Ad5K; Ad5k; not shown: His tag, N-terminal, kept
[5]
  stoichiometry N: 3
